The source of these data is patent publication US20240279345A1, “ALPHA 5 BETA 1 INTEGRIN BINDING AGENTS AND USES THEREOF” (PASITHEA THERAPEUTICS CORP., priority 2021, published 2024).

In assay [1] the target is purified recombinant human α5β1 integrin heterodimer, 6×His tagged (rh-α5β1; Acro Biosystems, cat. no. IT1-H52W5) (human) (UniProt P08648). Briefly: ELISA, inhibition of rh-α5β1-His binding to coated FN, isotype control (data normalised to it).
For assay [2], the target named is α5β1 integrin on cells (PMA-activated K562 cells; U87MG cells) (human) (UniProt P08648). Briefly: flow cytometry on PMA-activated K562 cells, hybridoma supernatant. Background: A flow cytometer gives signals particle by particle.
The target in assay [3] is recombinant human α5β1 integrin (human) (UniProt P08648). The assay is described as follows: ELISA, coated integrin, supernatant 1:10. A general note: ELISA stands for enzyme-linked immunosorbent assay.
For assay [4], the target named is recombinant human α4β1 integrin (human) (UniProt P13612). Briefly: ELISA, coated integrin, supernatant 1:10.
Assay [5] deals with T1, recombinant mouse α5β1 integrin (mouse, UniProt P11688 45-999; P09055 21-728).
T1 construct: bought recombinant heterodimer (R&D Systems cat. 7728-A5) coated on the plate; also called rm-α5β1
The assay is described as follows: ELISA, coated integrin, supernatant 1:10. The protocol: Plates were washed 3 times with Wash Buffer (1× Tris Buffered Saline containing 0.05% Tween20), blocked with 2% BSA in 1×TBS (made from 10× Thermo Scientific Blocker BSA (10×) in TBS; Thermo Fisher Scientific, Waltham, MA, cat. no. 37520) for 2 hours at room temperature (RT) then incubated with hybridoma supernatants diluted 1:10 with Standard Diluent (2% BSA, 1×TBS, 0.05% Tween20). […] Absorbance 450 nm was measured.

Assay [6] addresses purified recombinant human α5β1 integrin heterodimer, 6×His tagged (rh-α5β1; Acro Biosystems, cat. no. IT1-H52W5) (human) (UniProt P08648). The assay is described as follows: BLI (Octet), supernatant mAb on anti-mouse IgG Fc sensor, 20 nM rh-α5β1.

Sequence of purified recombinant human α5β1 integrin heterodimer, 6×His tagged (rh-α5β1; Acro Biosystems, cat. no. IT1-H52W5) (human) (P08648 42-995 limits assumed, form in doubt, chain 1 of 2): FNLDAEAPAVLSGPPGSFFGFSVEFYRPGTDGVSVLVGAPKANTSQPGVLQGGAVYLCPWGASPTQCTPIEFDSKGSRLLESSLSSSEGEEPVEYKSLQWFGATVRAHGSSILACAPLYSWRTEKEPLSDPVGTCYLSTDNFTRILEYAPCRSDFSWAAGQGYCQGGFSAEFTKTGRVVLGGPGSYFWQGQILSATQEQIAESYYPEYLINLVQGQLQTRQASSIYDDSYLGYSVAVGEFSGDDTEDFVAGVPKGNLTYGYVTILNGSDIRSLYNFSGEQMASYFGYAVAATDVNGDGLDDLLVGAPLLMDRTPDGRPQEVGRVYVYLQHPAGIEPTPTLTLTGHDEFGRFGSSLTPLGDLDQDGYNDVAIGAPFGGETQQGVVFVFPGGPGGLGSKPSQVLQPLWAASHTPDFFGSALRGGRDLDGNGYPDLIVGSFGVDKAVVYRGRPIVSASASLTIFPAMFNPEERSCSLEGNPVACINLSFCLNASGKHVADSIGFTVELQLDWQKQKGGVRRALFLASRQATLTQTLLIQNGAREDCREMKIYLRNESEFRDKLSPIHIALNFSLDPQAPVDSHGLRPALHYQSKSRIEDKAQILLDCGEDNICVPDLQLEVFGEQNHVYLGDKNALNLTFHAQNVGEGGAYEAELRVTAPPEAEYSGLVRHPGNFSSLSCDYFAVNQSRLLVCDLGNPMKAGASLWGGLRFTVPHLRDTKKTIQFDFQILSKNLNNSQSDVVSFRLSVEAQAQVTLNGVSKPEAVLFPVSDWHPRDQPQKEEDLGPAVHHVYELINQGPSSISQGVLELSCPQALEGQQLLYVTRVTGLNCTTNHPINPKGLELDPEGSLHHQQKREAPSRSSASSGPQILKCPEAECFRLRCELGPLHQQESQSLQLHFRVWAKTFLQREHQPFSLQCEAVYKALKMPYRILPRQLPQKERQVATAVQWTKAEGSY
Sequence of purified recombinant human α5β1 integrin heterodimer, 6×His tagged (rh-α5β1; Acro Biosystems, cat. no. IT1-H52W5) (human) (chain, as listed by the source limits assumed, form in doubt, chain 2 of 2): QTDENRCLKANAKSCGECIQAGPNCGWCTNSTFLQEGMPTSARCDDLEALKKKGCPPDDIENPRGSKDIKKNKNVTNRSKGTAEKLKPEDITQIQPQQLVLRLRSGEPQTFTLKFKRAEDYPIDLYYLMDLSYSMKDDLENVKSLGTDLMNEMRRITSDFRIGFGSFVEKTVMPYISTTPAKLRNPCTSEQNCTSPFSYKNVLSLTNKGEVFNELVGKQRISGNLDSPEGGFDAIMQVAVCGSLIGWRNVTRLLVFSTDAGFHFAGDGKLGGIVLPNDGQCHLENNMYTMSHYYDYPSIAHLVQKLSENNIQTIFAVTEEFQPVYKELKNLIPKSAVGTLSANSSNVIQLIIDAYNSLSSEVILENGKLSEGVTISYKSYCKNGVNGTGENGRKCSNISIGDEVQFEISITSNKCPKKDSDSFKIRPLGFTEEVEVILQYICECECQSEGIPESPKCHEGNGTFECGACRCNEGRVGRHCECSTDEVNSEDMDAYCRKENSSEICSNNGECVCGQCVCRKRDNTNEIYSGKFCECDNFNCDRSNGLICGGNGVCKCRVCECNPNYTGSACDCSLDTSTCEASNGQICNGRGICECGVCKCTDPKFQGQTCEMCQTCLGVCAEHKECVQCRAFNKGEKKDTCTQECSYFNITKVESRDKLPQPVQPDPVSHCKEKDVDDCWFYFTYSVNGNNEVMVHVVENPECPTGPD
Sequence of recombinant human α4β1 integrin (human) (P13612 34-977 limits assumed, form in doubt, chain 1 of 2): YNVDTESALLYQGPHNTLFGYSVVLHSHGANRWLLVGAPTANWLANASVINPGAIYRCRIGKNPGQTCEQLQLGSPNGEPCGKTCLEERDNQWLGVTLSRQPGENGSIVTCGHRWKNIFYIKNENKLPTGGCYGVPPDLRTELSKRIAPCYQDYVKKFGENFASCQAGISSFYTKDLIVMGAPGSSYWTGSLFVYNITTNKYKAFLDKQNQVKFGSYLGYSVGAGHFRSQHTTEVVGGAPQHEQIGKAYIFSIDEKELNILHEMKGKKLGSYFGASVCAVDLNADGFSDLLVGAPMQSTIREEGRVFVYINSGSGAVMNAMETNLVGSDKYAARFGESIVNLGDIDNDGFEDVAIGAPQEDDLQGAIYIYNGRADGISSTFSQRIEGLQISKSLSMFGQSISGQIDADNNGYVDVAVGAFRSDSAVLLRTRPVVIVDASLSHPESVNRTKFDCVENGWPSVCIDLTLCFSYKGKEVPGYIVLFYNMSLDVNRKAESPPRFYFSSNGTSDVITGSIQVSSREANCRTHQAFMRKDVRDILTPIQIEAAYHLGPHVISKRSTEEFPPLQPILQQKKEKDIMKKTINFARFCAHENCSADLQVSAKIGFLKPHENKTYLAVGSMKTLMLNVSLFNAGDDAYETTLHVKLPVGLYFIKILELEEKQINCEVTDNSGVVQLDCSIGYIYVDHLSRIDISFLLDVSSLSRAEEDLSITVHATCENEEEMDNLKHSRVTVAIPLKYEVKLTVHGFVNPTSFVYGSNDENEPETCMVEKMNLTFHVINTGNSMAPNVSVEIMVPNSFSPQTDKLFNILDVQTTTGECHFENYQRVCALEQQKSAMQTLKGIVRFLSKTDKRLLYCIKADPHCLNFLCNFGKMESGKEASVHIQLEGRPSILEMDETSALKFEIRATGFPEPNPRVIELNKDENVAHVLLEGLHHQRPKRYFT
Sequence of recombinant human α5β1 integrin (human) (P08648 42-995 limits assumed, form in doubt, chain 1 of 2): as the sequence (P08648 42-995 limits assumed, form in doubt, chain 1 of 2) above
T1 sequence (P11688 45-999 limits assumed, form in doubt, chain 1 of 2): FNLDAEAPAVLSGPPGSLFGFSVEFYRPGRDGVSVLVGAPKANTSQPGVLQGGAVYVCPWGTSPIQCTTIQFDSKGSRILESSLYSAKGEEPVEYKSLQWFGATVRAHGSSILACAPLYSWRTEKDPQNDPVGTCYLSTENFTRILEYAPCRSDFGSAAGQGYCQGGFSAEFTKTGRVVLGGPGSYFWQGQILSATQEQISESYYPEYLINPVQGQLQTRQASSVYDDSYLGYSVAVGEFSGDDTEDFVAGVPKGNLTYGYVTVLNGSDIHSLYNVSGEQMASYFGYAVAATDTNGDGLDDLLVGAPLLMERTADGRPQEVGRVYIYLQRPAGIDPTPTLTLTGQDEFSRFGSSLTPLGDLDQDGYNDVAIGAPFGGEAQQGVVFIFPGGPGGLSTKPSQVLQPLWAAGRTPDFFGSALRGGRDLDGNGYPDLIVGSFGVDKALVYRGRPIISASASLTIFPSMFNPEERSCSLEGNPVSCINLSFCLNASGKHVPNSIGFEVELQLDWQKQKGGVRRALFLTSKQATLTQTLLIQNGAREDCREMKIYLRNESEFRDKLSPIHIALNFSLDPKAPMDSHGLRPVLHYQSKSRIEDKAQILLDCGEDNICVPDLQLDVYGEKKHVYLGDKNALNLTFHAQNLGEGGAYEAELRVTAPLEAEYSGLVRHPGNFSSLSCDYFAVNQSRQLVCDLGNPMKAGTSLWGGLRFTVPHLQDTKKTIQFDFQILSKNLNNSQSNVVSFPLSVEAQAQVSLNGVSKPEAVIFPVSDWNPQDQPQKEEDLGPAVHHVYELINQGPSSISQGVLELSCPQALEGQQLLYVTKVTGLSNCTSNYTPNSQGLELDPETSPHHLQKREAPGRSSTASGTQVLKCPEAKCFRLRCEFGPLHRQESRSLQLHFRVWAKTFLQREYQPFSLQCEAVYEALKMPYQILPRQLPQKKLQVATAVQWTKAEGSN
T1 sequence (chain, as listed by the source limits assumed, form in doubt, chain 2 of 2): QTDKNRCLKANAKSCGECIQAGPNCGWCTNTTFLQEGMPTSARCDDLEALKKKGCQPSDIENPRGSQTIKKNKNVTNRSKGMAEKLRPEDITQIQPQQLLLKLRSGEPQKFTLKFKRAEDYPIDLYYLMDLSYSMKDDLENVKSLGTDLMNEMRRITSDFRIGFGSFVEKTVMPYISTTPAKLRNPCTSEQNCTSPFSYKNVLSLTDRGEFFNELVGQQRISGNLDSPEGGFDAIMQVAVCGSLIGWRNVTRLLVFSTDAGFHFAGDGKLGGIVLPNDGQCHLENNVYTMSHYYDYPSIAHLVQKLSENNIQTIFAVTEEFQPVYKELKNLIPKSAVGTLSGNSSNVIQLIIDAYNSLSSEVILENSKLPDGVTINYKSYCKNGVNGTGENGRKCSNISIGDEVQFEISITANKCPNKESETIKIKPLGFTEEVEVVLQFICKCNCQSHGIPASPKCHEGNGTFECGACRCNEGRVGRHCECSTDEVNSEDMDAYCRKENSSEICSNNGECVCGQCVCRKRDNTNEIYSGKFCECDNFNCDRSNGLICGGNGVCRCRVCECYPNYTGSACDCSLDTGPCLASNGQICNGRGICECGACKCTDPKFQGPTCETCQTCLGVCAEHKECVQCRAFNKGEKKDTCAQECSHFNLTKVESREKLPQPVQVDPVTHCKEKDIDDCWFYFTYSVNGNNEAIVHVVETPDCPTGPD

With “Isotype control antibody (Ms IgG2a, EMD Millipore, cat. no. PP102)”, the % Max Inhibition in assay [1] turned out to be 0%.

B1: A-15C03 (antibody, part only; not given: light chain, V domains shown, part only)
VH: QVQLKESGPGLVAPSQSLSITCTISGFSLTTYGVHWVRQPPGKGLEWLVVIWSDGSTTYNSALKSRLNITKDNSKSQVFLKMNSLQTDDTAMYYCVRHGGLLRRDAMDYWGQGTSVTVSS
As a reminder, the Kd is the equilibrium constant for the complex coming apart. A word on the koff: it is the rate constant with which the complex falls apart. One may read the kon as the rate constant with which the complex forms. Molecule B1 registered an MFI in assay [2] of 1970. In assay [3], the Absorbance 450 nm was 0.478 A450. In assay [4], the Absorbance 450 nm amounted to 0.0793 A450. In assay [5], the Absorbance 450 nm came to 0.0709 A450. In assay [6], the Kd is 4.67 nM, the koff stood at 0.00129 s⁻¹ and the kon is 276000 M⁻¹ s⁻¹.
